Values of other authors as cited in article PMC6457457.

Target: LC8 (Homo sapiens) (UniProt P63167)
Sequence of UniProt P63167 (P63167 whole entry): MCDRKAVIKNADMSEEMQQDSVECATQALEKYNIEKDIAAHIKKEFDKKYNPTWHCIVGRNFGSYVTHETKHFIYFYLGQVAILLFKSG

## VP35 (from UniProt Q6V1Q9)
  Kd: 0.0824 µM
